Source: PMC10130016, “Millisecond cryo-trapping by the spitrobot crystal plunger simplifies time-resolved crystallography” (Nature Communications, 2023)

Molecular target: T1, Salmonella typhimurium tryptophan synthase TrpB subunit (Salmonella typhimurium, UniProt P0A2K1 1-397, pyridoxal 5'-phosphate (PLP) as internal aldimine; Lys87 named in the active site)
T1 construct: Tryptophan synthase beta chain (TrpB), Salmonella typhimurium; also called TS β-subunit
T1 sequence: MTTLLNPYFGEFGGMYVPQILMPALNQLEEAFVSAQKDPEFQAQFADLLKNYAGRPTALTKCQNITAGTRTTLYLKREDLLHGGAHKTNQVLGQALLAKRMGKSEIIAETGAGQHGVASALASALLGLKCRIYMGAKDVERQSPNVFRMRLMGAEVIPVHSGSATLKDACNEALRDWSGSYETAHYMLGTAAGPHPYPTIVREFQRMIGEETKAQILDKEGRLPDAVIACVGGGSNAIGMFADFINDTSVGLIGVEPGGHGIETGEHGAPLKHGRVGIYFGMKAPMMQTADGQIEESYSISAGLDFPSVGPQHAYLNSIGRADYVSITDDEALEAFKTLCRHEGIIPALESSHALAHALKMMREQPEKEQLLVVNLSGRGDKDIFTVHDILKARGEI
Assay: crystal structure; TrpAB complex purified together; crystals from 17% (w/v) PEG 300, 0.1 M Tris-HCl pH 7.5, 20 mM cesium chloride, 18 °C, hanging drop; space group C 2, one TrpA and one TrpB in the asymmetric unit; cryo-trapped 0, 20, 25 and 30 s after LAMA mixing with indole, serine and G3P
Details: both partners purified

B1: Salmonella typhimurium tryptophan synthase TrpA subunit (enzyme)
chain: MERYENLFAQLNDRREGAFVPFVTLGDPGIEQSLKIIDTLIDAGADALELGVPFSDPLADGPTIQNANLRAFAAGVTPAQCFEMLALIREKHPTIPIGLLMYANLVFNNGIDAFYARCEQVGVDSVLVADVPVEESAPFRQAALRHNIAPIFICPPNADDDLLRQVASYGRGYTYLLSRSGVTGAENRGALPLHHLIEKLKEYHAAPALQGFGISSPEQVSAAVRAGAAGAISGSAIVKIIEKNLASPKQMLAELRSFVSAMKAASRA
notes: Tryptophan synthase alpha chain (TrpA), Salmonella typhimurium; also called TS alpha subunit
binding result: binds
